Assay results reported in the supplement of paper PMC10567573.
± gives the standard deviation.

Test: protein stability index of a GFP-peptide fusion (GPS, HEK-293T) (PSI 1-6); higher = more stable
[1] = treatment: DMSO, c terminus: a fixed tail appended
[2] = treatment: MLN4924 1 uM, 8 h, c terminus: a fixed tail appended
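Further: 24-mer peptide tiles fused after GFP, lentivirally expressed, FACS-sorted into six equal bins by GFP/DsRed ratio, decoded by Illumina sequencing, PSI is the read-weighted mean bin number.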

Sequence | protein stability index [1] | protein stability index [2] | protein stability index (treatment: DMSO, c terminus: native) | protein stability index (treatment: MLN4924 1 uM, 8 h, c terminus: native)
RPALAQQAQGARAGGSARRPDTGD [GMCL1] | 5.28 ± 0.19 | 5.33 ± 0.13 |  | 
ESKGCFANTTPSGKSVSSSSSVET [SPATS1] | 5.18 ± 0.14 | 5.19 ± 0.12 |  | 
VDSKPELQRVLEHRRRNQLIKKKK [FAM107A] | 4.54 ± 0.2 | 4.61 ± 0.39 |  | 
DITQSIEDDPLLDAQLLPHHSLQA [TMEM192] | 4.15 ± 0.22 | 4.1 ± 0.37 |  | 
SVMAIERCIGVTKPIFHSTKITSK [PTGFR] | 2.71 ± 0.16 | 2.98 ± 0.49 |  | 
RSEEAVQVLIKHSADVNARDKNWQ [ANKRD44] | 4.17 ± 0.22 | 4.44 ± 0.33 |  | 
LEPLSLPESPGGTTTLEGSPSVPC [ZNF277] | 5.22 ± 0.16 | 5.3 ± 0.14 |  | 
SLELPKAIQDQLPRLQQLLKTLEE [FANCE] | 2.66 ± 0.32 | 2.85 ± 0.24 |  | 
EWDAMGGKVQDIKAREKDGKGRTA [FSD1] | 5.16 ± 0.21 | 5.35 ± 0.14 |  | 
HGDDLKNTKNEISELTRLIQRIRS [KRT71] | 2.77 ± 0.18 | 3.11 ± 0.3 |  | 
LINKMLTINPSKRITAAEALKHPW [CAMK2A] | 2.16 ± 0.11 | 2.17 ± 0.18 |  | 
AGEGRLGHKRKQPLPKRVAKVPRP [FOXJ1] | 4.53 ± 0.45 | 4.36 ± 0.43 |  | 
VESSLNVKTKKNAPSATIHQGEEE [FBXO34] | 5.37 ± 0.22 | 5.49 ± 0.2 |  | 
HAVVGVATALAPLQTDHYAALLGS [SPSB2] | 2.37 ± 0.18 | 2.29 ± 0.39 |  | 
PPSNFLEIDIFNPQTVGVGRARFT [SNX12] | 3.27 ± 0.34 | 3.27 ± 0.21 |  | 
QELNELFKPVVAAQKISKGADPKS [ZC3H15] | 4.8 ± 0.13 | 4.92 ± 0.18 |  | 
GSSDSEEERATRLAELQEQLKAVH [BRD3] | 5.13 ± 0.23 | 5.15 ± 0.27 |  | 
DLVMALSAGGHGGLLNDTSAPHLE [KCNA4] | 2.8 ± 0.35 | 2.58 ± 0.26 |  | 
IQEQKVVLEENGEKNQVQLGKLEA [SASS6] | 5.2 ± 0.22 | 5.42 ± 0.3 |  | 
LVLAAVVAWCYYSVSLRKAERLRA [MYORG] | 3.27 ± 0.64 | 3.31 ± 0.33 |  | 
PDDPEHLAARRQWRDECLMRLAKL [CRYL1] | 3.66 ± 0.6 | 3.83 ± 0.36 |  | 
AGGEKGPQAFPMSRLWDSRLRHYL [DNAAF3] | 2.12 ± 0.077 | 2.54 ± 0.065 |  | 
IMTDLYYLSQTDGAGDWREKEAKD [FUT8] | 3.59 ± 0.42 | 3.69 ± 0.32 |  | 

Sequence | protein stability index [1] | protein stability index [2] | protein stability index (treatment: DMSO, c terminus: native) | protein stability index (treatment: MLN4924 1 uM, 8 h, c terminus: native)
TPPTPAPTSGIVGALMEVMQKRSK [WASL] | 4.55 ± 0.12 | 4.65 ± 0.25 |  | 
FLRQLRASHLGNELEGTEELCCVA [C2CD2L] | 2.98 ± 0.1 | 3.19 ± 0.3 |  | 
SARWLEVLRTYLELVLCVLVSIRN [FBXO33] | 2.33 ± 0.31 | 2.16 ± 0.21 |  | 
LEEQGATWRHRETLIIAVLVSASI [FATE1] | 2.77 ± 0.49 | 2.7 ± 0.44 |  | 
YSCQSKEILRYMKEFTLLLSAANV [P2RY14] | 2.4 ± 0.45 | 2.26 ± 0.31 |  | 
RWDMADNEQVLTTEHEKKQKLETD [YJU2B] | 5.39 ± 0.32 | 5.37 ± 0.21 |  | 
GKEFGYFPRDAVQIEEVFISEEIQ [MIA2] | 3.88 ± 0.42 | 3.77 ± 0.45 |  | 
RNARIVHLVEETRIHVLPSLNPDG [CPXM2] | 2.97 ± 0.037 | 3.2 ± 0.24 |  | 
LYVDSLFFLRGRLDQLLRHVMNPL [PRAME] | 3.38 ± 0.99 | 1.89 ± 0.53 |  | 
GSEVVPVISPMYQLHKPLAEGTPR [IKZF1] | 3.56 ± 0.16 | 4.21 ± 0.49 |  | 
IPLEQGSSCNGPGQTTGHPYYLRS [FAN1] | 5.05 ± 0.38 | 5 ± 0.18 |  | 
LQELLTHDTKDQSPSRAPGLRQRA [HMOX1] | 4.33 ± 0.26 | 4.62 ± 0.33 |  | 
CAIQASLNQGSVFQEYDTDCEVFR [ZNF449] | 2.79 ± 0.82 | 2.67 ± 0.48 |  | 
MLLPQLCWLPLLAGLLPPVPAQKF [SMOC2] | 3.51 ± 0.69 | 3.67 ± 1.4 |  | 
VFVGNQLIPQPLDSEEDEKMEEDI [PCMTD1] | 4.99 ± 0.2 | 5.07 ± 0.22 |  | 
IYKKYALQSAAGKDAAKQIAWIKD [PDS5B] | 2.03 ± 0.3 | 2.61 ± 0.44 |  | 
RRVRLELWDTSGQGRFCTIFRSYS [RAB40C] | 2.35 ± 0.5 | 1.99 ± 0.29 |  | 
FEAEPLPENTNRQLLLQFERLVVL [PI4K2A] | 2.12 ± 0.1 | 2.14 ± 0.26 |  | 
KGTENLQRAQAEVLQSVRELSRSR [FCHSD1] | 4.61 ± 0.27 | 4.41 ± 0.38 |  | 
SDDSDEDEPCAISGKWTFQRDSKR [DLC1] | 5 ± 0.13 | 4.83 ± 0.069 |  | 
TAEKRKRLGELFNPYYDPLQWKSS [CHGB] | 2.54 ± 0.17 | 2.93 ± 0.34 |  | 
VFDNAIRAALISRRHLQFWKSHLR [RHOBTB2] | 2.23 ± 0.38 | 2.1 ± 0.3 |  | 
GKDSRWLPSLVLARLVFVPLLLLC [SLC29A1] | 2.68 ± 0.78 | 2.48 ± 0.45 |  | 

Sequence | protein stability index [1] | protein stability index [2] | protein stability index (treatment: DMSO, c terminus: native) | protein stability index (treatment: MLN4924 1 uM, 8 h, c terminus: native)
MDLKTAVFNAARDGKLRLLTKLLA [FEM1C] | 2.17 ± 0.2 | 2.3 ± 0.32 |  | 
NAVRSAMKSEEQKIKDARKGPLVP [KMT5A] | 4.75 ± 0.11 | 5.07 ± 0.13 |  | 
SEIEMAKAQRDYELKKAAYDIEVN [FLOT1] | 4.89 ± 0.29 | 5.02 ± 0.17 |  | 
MGETKIIYHLDGQETPYLVKLPLP [DVL3] | 2.2 ± 0.3 | 2.3 ± 0.23 |  | 
GGGNARATGMFLQYTVPGTEGVTQ [ZFYVE21] | 3.51 ± 0.35 | 3.57 ± 0.18 |  | 
RDCLVLNQGYLSEAGASLVDQKLE [PI4K2A] | 4.29 ± 0.28 | 4.54 ± 0.11 |  | 
IITRHNLTYEFLQARLRQHYQTI [CLCN6] |  |  | 2.75 ± 0.49 | 2.69 ± 0.46
LDCEGTTNKMKSPETKQRKLSPLR [KMT2E] | 5.39 ± 0.22 | 5.05 ± 0.37 |  | 
SCMASLWTAPLVMRTTNLDNRCKL [CDC25A] | 2.33 ± 0.084 | 2.43 ± 0.15 |  | 
SFQGCMAQLFMDHLFAGAEVILLV [OR4A15] | 3.28 ± 1.2 | 3.18 ± 0.91 |  | 
IWSEVFTVEKPGGKKVAVVLMDTQ [ATL3] | 2.2 ± 0.34 | 2.37 ± 0.39 |  | 
HTEERPYECNHCGKGFRHSSSLAQ [ZNF8] | 3.58 ± 0.3 | 3.79 ± 0.27 |  | 
PYDGNSSDPENWDRKLHSRPRKLY [BTBD10] | 3.35 ± 0.24 | 3.41 ± 0.34 |  | 
MGPKTLPQLAGKWQVLCMLSLCCW [PCDHGC5] | 3.21 ± 0.49 | 3.17 ± 0.76 |  | 
LQIASDSHQYDRIYCGAGVQKDHE [PCMTD1] | 4.24 ± 0.25 | 4.25 ± 0.28 |  | 
AAQEGEDEGASAGQGPKPEADSQE [GAGE1] | 5.67 ± 0.17 | 5.64 ± 0.24 |  | 
PSELRDLVTQQLPHLMPSNCGLEE [S100A14] | 2.71 ± 0.22 | 3.02 ± 0.18 |  | 
LVALKCTCCYFKFIIEYYNIRPAD [FBXO34] | 2.69 ± 0.38 | 2.81 ± 0.9 |  | 
EKDERQRTTKPMAQRSAHCSRPSG [CSNK1G1] | 5.12 ± 0.11 | 4.98 ± 0.29 |  | 
IYKLEEHEEFFPAFQAFTNDLLEI [CEP70] | 2.43 ± 0.24 | 2.39 ± 0.072 |  | 
VLLHGPPGTGKTSLCKALAQKLTI [TRIP13] | 2.58 ± 0.6 | 2.31 ± 0.53 |  | 
RGGMGSGGLATGIAGGLAGMGGIQ [KRT18] | 3.61 ± 0.18 | 3.38 ± 0.23 |  | 
EAQEEFLRVLGSMCQRLRSMQYNG [DFFB] | 2.27 ± 0.21 | 2.27 ± 0.21 |  | 

Sequence | protein stability index [1] | protein stability index [2] | protein stability index (treatment: DMSO, c terminus: native) | protein stability index (treatment: MLN4924 1 uM, 8 h, c terminus: native)
SEMAEDLCKIGSERSLVLDRLASN [IKZF1] | 4.56 ± 0.38 | 4.73 ± 0.2 |  | 
TPSNFQHIGHVGWDPNTGFDLNNL [WASL] | 3.24 ± 0.3 | 3.47 ± 0.4 |  | 
EKNLLLQNQVDELERKFRCQQEQL [LRRC45] | 4.27 ± 0.31 | 4.34 ± 0.23 |  | 
GNPDPEITWFKDFLPVDTSNNNGR [PTPRD] | 4.27 ± 0.31 | 4.76 ± 0.26 |  | 
PSSPGRFTKETTQKNFNNLYGTKG [TRIM29] | 4.2 ± 0.27 | 4.37 ± 0.085 |  | 
RIHERLVAGSLAGAIAQSSIYPME [SLC25A25] | 2.74 ± 0.52 | 2.56 ± 0.27 |  | 
LAHMIAECKKLFQVPEEMSRCRNS [DLC1] | 2.67 ± 0.34 | 2.68 ± 0.34 |  | 
AQRHRGSAKDGGPQPPDAPQLVSS [PLEKHN1] | 5.04 ± 0.51 | 5.22 ± 0.28 |  | 
TMKESLTTREIRRQEAIYEMSRGE [NET1] | 4.46 ± 0.26 | 4.68 ± 0.33 |  | 
SALEGRADTTTGSAAGPPLSEDDK [EHMT1] | 5.14 ± 0.83 | 5.38 ± 0.43 |  | 
PLQNQKILKRTGQRYEHGRTLKSY [ZNF649] | 2.89 ± 0.45 | 3.53 ± 0.41 |  | 
RNQYEALVETNRREVEQWFATQTE [KRT33B] | 4.37 ± 0.28 | 4.27 ± 0.48 |  | 
DLSKIIRTSSGTSREKTACAINKV [FAM98B] | 3.06 ± 0.27 | 3.19 ± 0.6 |  | 
LDPASLAWLTEEEPEPAEVTSTSQ [DDIT3] | 5.51 ± 0.17 | 5.53 ± 0.31 |  | 
SLTRSNRHRLRWHSFQSSHRPSLN [DLC1] | 3.05 ± 0.14 | 3.41 ± 0.31 |  | 
AGRLMRPSVKYLSHPRVQSGCDKE [RNF180] | 4.06 ± 0.21 | 4.11 ± 0.21 |  | 
EEKQASLWVQGDIFRSKLKNRPSS [CDC14A] | 3.89 ± 0.049 | 4 ± 0.25 |  | 
AIFSAPAFPAAVSSMKKFCRPLLP [PSD2] | 2.58 ± 0.12 | 2.3 ± 0.28 |  | 
LGISPSTCSFNPGVIVANMTEWKH [GLT8D2] | 2.59 ± 0.3 | 2.59 ± 0.23 |  | 
MRATPLAAPAGSLSRKKRLELDDN [TRIB3] | 4.57 ± 0.14 | 4.86 ± 0.23 |  | 
